For test [1], the system named is Acute promyelocytic leukemia cells. Particulars: cells induced to differentiate down the neutrophil lineage for three days; cited from earlier work.
The test system of test [2] is WAS−/− T cells. In words: In vitro Transwell cell migration toward CCL19, WAS-/- T cells. In kind it is cell-based, mouse (WAS−/− on Balb/c background). Particulars: seven hours of exposure to CCL19 (100 ng/mL), 5-μm pore inserts. The method, then: Cells from the peripheral lymph nodes and the spleen of Balb/c mice and WAS−/− mice on Balb/c background were pooled and enriched using the EasySep Mouse CD8+ T Cell Enrichment Kit from STEMCELL Technologies (British Columbia, Canada). Enrichment was confirmed using fluorescence-activated cell sorting (FACS) by staining the cells with FITC/anti-Thy1.2 and PE/anti-CD8a antibodies (Abs). The memory T cell population was assessed by evaluating the expression of CD44 and CD62L via FACS. T cells in an activation medium with 100 units/mL IL-2 and 1% anti-CD28 Ab were activated by plate-bound anti-CD3 Abs for 4 day at 37° C. The activation medium included RPMI with 10% FBS, 10 mM HEPES (1M), 1% NEAA, 1% sodium pyruvate (100 mM), […] (3-mercaptoethanol, 4 mM L-glutamine, and 100 μg/mL Pen/Strep. Cell activation was verified via FACS measurement of CD25. Enriched WT and WAS−/− T cells in DMEM with 1% BSA and 0.1% Pen/Strep were induced to migrate through polycarbonate Transwell inserts (Costar, Cambridge, Mass.) with 5-μm pores in a 24-well plate toward a CCL19 chemokine source (R&D Systems, Minneapolis, Minn.). Inserts contained 5×10^5 cells in 100 μL of medium, and wells contained 1 mL of medium with either no CCL19 or 100 ng/mL of CCL19. Cells were allowed to migrate for ˜7 hours at 37° C., and those that crossed the membrane were collected and used for MPA studies.

In test [3] the test system is WT T cells. In words: Micropipette aspiration of CCL19-stimulated migratory WT T cells. In kind it is cell-based, mouse (Balb/c). Here is the method: (§1) Micropipettes made using a micropipette puller were trimmed to 2.5-3 or 4.5-5 μm inner diameter for testing naïve and activated T cells. MPA glass chambers consisted of a 24 mm×60 mm microscope coverslip bottom, a U-shaped parafilm spacer, and a 22 mm×22 mm microscope coverslip top. The assembly was baked for two hours at 80° C. to ensure good adhesion between the components.
(§2) Enriched WT and WAS−/− T cells in DMEM with 1% BSA and 0.1% Pen/Strep were induced to migrate through polycarbonate Transwell inserts (Costar, Cambridge, Mass.) with 5-μm pores in a 24-well plate toward a CCL19 chemokine source (R&D Systems, Minneapolis, Minn.). Inserts contained 5×10^5 cells in 100 μL of medium, and wells contained 1 mL of medium with either no CCL19 or 100 ng/mL of CCL19. Cells were allowed to migrate for ˜7 hours at 37° C., and those that crossed the membrane were collected and used for MPA studies.
3×10^5 cells in 100 μL RPMI with 10% FBS and 1% HEPES was stained with 10 μL trypan blue. The mixture was added to 600 μL of either the RPMI medium or the T cell activation medium with IL-2 for naïve and activated T cell testing. Migratory T cells were tested in the medium used for migration. The MPA device was based on the design of Hochmuth et al (18). The aspiration rate and volume were 36 mL/hr and 2 mL, corresponding to a total pressure of ˜400 Pa. The cell movement in the micropipette was recorded with a CCD camera. Aspirations were performed at approximately room temperature.
MPA data were fitting using the half-space model (77) described by the expressions:
where E is the cell modulus, L is the length from the micropipette opening to the cell leading edge, Δp is the pressure differential at a particular L, ri and ro are the inner and outer […] of the micropipette, and φ is the wall function that is approximately […]. The ImageJ software was used to manually track the change in L. By plotting Δp against ri/L and finding the best linear fit (minimal total error) a modulus could be derived from the slope of the line. […]

The test system of test [4] is WAS−/− T cells. Description: Micropipette aspiration of CCL19-stimulated migratory WAS-/- T cells. Format: cell-based, mouse (WAS−/− on Balb/c background). The note with it: naïve WAS−/− T cells that migrated in response to CCL19. Here is the method:
as §1, §2
3×10^5 cells in 100 μL RPMI with 10% FBS and 1% HEPES was stained with 10 μL trypan blue. The mixture was added to 600 μL of either the RPMI medium or the T cell activation medium with IL-2 for naïve and activated T cell testing. Migratory T cells were tested in the medium used for migration. The MPA device was based on the design of Hochmuth et al (18). […] The cell movement in the micropipette was recorded with a CCD camera. […]

In test [5] the test system is WT T cells. In words: FACS analysis of phenotype (CD62L/CD44) of WT T cells induced to migrate by CCL19. Format: cell-based, mouse (Balb/c). The note with it: WT cells that migrated after CCL19 exposure. The method, then:
FIG. 68 depicts results of a FACS analysis of phenotype of naïve WT T cells induced to migrate by the chemokine CCL19. T cells were first gated on PI to exclude dead cells. The cell samples tested were naïve T cells not exposed to CCL 19 (A, D), cells that remained in the insert after CCL19 exposure (100 ng/mL) for seven hours (B, E), and cells that migrated across the insert membrane after the same chemokine treatment (C, F).
Cells from the peripheral lymph nodes and the spleen of Balb/c mice and WAS−/− mice on Balb/c background were pooled and enriched using the EasySep Mouse CD8+ T Cell Enrichment Kit from STEMCELL Technologies (British Columbia, Canada). Enrichment was confirmed using fluorescence-activated cell sorting (FACS) by staining the cells with FITC/anti-Thy1.2 and PE/anti-CD8a antibodies (Abs). The memory T cell population was assessed by evaluating the expression of CD44 and CD62L via FACS. T cells in an activation medium with 100 units/mL IL-2 and 1% anti-CD28 Ab were activated by plate-bound anti-CD3 Abs for 4 day at 37° C. The activation medium included RPMI with 10% FBS, 10 mM HEPES (1M), 1% NEAA, 1% sodium pyruvate (100 mM), […] (3-mercaptoethanol, 4 mM L-glutamine, and 100 μg/mL Pen/Strep. Cell activation was verified via FACS measurement of CD25. […]

Take `CC1=C(/C=C/C(C)=C/C=C/C(C)=C/C(=O)O)C(C)(C)CCC1` [all-trans retinoic acid]: in test [1], the “more compliant than the control (creep compliance)” value is recorded as 45%.

B1: CCL19: chemokine CCL19 (R&D Systems) used as chemoattractant for T cells (protein, UniProt Q99731 22-98, looked up)
C-C motif chemokine 19: GTNDAEDCCLSVTQKPIPGYIVRNFHYLLIKDGCRVPAVVFTTLRGRQLCAPPDQPWVERIIQRLQRTSAKMKRRSS
As to B1, the cells migrated in the test with WAS−/− T cells [2] is given as around 6.4%. For the same molecule, the “stiffness compared to activated cells” value in the test with WT T cells [3] (migratory WT cells vs activated WT T cells) is listed as “about 1.4 times”. Besides, the “modulus reduction from the value measured in the absence of CCL19” value in the test on WT T cells [3] (migratory WT cells vs untreated naïve WT cells) is listed as “more than 2 times”. Further, the “apparent Young's modulus (mean+/−SD)” value in the test with WT T cells [3] (naïve WT T cells that migrated in response to CCL19) is given as 128+/−33 Pa; with WAS−/− T cells [4] it was 152+/−102 Pa. In addition, the “migrating cells stained CD62L high and CD44 low (naïve phenotype)” value with WT T cells [5] is around 90%.

Values taken from US20110287948A1, “MEASUREMENT OF MATERIAL PROPERTIES AND RELATED METHODS AND COMPOSITIONS BASED ON CYTOADHERENCE” (Massachusetts Institute of Technology, priority 2010, published 2011).
